Broadly, the IC50 is the concentration that inhibits the measured activity by half. A high value points to a need for much substance.

Assay [1] concerns the target PLK1 PBD protein (residues 367-603) (human), P53350. The assay is described as follows: competitive FP, displacement of fluorescein tracer SEQ ID NO: 7 from PLK1 PBD (367-603).
Assay [2] addresses PLK1 (endogenous, in HeLa / HeLa-H2B-GFP cells) (human), P53350. The assay is described as follows: cell-based or functional assay.
Assay [3] concerns the target PLK1 PBD protein (residues 367-603) (human), P53350. The assay is described as follows: competitive FP.

PLK1 PBD protein (residues 367-603) (human), P53350, sequence (P53350 367-603 limits assumed): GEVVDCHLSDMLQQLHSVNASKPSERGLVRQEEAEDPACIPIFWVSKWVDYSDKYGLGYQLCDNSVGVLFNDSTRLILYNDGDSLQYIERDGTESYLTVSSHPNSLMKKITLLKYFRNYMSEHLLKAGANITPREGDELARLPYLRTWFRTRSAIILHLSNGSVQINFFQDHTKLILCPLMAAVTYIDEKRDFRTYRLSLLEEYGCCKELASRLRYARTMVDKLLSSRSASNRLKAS
PLK1 (endogenous, in HeLa / HeLa-H2B-GFP cells) (human), P53350, sequence (P53350 2-603): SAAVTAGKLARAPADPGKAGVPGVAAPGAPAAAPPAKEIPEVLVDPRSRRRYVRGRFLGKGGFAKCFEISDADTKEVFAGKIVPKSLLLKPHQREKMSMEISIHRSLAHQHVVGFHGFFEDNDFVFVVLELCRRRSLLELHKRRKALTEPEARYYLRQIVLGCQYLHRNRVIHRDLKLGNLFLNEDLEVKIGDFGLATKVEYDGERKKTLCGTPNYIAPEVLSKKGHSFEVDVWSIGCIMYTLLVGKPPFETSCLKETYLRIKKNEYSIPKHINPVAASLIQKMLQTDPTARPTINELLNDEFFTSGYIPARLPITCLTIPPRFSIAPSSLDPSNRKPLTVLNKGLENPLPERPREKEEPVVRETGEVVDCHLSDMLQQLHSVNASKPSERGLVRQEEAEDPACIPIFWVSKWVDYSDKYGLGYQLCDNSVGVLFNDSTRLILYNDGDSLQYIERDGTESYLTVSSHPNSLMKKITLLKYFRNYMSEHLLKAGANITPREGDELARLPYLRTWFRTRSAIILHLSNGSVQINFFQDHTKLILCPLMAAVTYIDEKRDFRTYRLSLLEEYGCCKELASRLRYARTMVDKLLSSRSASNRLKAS

B1: Sample No. 5597, fragment ligated inhibitor (peptide)
peptide: STPNGL
modifications: not checked
Consider B1, for which the IC50 in assay [1] stood at 500 µM.

B2: Ac-LHS[pT]AI (sample no. 5781) (peptide)
peptide: LHSTAI
modifications: not checked
For the molecule B2, in assay [2], the aberrant metaphase (30 µM) stood at 23%; the decrease of the percentage of viable cells, 24 hours, 30 µM (Annexin V/PI) came to 30%; the relative fluorescence intensity of PLK1 staining at centrosomes (30 µM, HeLa-H2B-GFP) (arbitrary fluorescence units) was 35.

B3: Sample No. 5754, fragment ligated inhibitor (4-methoxybenzoic acid) (peptide)
peptide: STPNGL
modifications: not checked
With B3, in assay [1], the IC50 turned out to be 125 µM.

B4: Sample No. 5601, fragment ligated inhibitor (peptide)
peptide: STPNGL
modifications: not checked
The molecule B4 yielded an IC50 in assay [1] of 400 µM.

B5: … (sample no. 345) (peptide)
peptide: LLCSEPNGL
modifications: not checked
In assay [3], B5 displayed a fold less potent (than the phosphothreonine sequence) of 1000 fold. Further, the IC50 in assay [1] was found to be 350 µM.

B6: Sample No. 5830, fragment ligated inhibitor (4-(Propylamino) benzoic acid) (peptide)
peptide: STPNGL
modifications: not checked
On to B6, for which, in assay [1], the IC50 came to 16.5 µM.

B7: Sample No. 5595, fragment ligated inhibitor (peptide)
peptide: STPNGL
modifications: not checked
Consider B7, for which, in assay [1], the IC50 turned out to be 475 µM.

B8: Sample No. 5792, fragment ligated inhibitor (4-(Methylamino) benzoic acid) (peptide)
peptide: STPNGL
modifications: not checked
With B8, the IC50 in assay [1] stood at 31.2 µM.

B9: Sample No. 5599, fragment ligated inhibitor (peptide)
peptide: STPNGL
modifications: not checked
B9 returned an IC50 in assay [1] of 600 µM.

B10: Sample No. 5604, fragment ligated inhibitor (peptide)
peptide: STPNGL
modifications: not checked
Turning to B10, the IC50 in assay [1] turned out to be 300 µM.

B11: Sample No. 5593, fragment ligated inhibitor (peptide)
peptide: STPNGL
modifications: not checked
B11 registered an IC50 in assay [1] of 380 µM.

B12: LLCS[pT]PNGL, native phospho-CDC25c PBD binding sequence (sample no. 292) (peptide)
peptide: LLCSTPNGL
modifications: not checked
Take B12: in assay [2], the aberrant prometaphase/metaphase features (30 µM) amounted to 25% and the relative fluorescence intensity of PLK1 staining at centrosomes (HeLa-H2B-GFP) (arbitrary fluorescence units) is 45.

B13: Sample No. 5791, fragment ligated inhibitor (4-(Methylthio) benzoic acid) (peptide)
peptide: STPNGL
modifications: not checked
Consider B13, for which the IC50 in assay [1] turned out to be 18.5 µM.

B14: Sample No. 5786, fragment ligated inhibitor (4-ethoxybenzoic acid) (peptide)
peptide: STPNGL
modifications: not checked
The molecule B14 gave an IC50 in assay [1] of 64.7 µM.

B15: Sample No. 5753, fragment ligated inhibitor (peptide)
peptide: STPNGL
modifications: not checked
The molecule B15 came in with an IC50 in assay [1] of 104 µM.

B16: … (sample no. 5783) (peptide)
peptide: LLAAAPNGL
modifications: not checked
B16 showed an aberrant prometaphase/metaphase features (30 µM) in assay [2] of 9.5%.

B17: Ac-LLCS[pT]PNGL (sample no. 5821) (peptide)
peptide: LLCSTPNGL
modifications: not checked
B17: the fraction of viable cells after 24 hours, 30 µM (Annexin V/PI) in assay [2] stood at 57%.

B18: Sample No. 5591, fragment ligated inhibitor (peptide)
peptide: STPNGL
modifications: not checked
Take B18: the IC50 in assay [1] was found to be 375 µM.

B19: 3G1-S[pT]PNGL (4-ethylbenzoic acid) (Sample No. 5788) (peptide)
peptide: STPNGL
modifications: not checked
For B19, in assay [2], the Aberrant mitoses @ 24 hr came to 47.9%; the Apoptosis @24 hr, 30 mM was determined as 36.2%; the proportion of viable cells after 24 hours, 30 µM (Annexin V/PI) was determined as 64%; the relative fluorescence intensity of PLK1 staining at centrosomes (10 µM, HeLa-H2B-GFP) (arbitrary fluorescence units) was determined as 32.

B20: Sample No. 5600, fragment ligated inhibitor (peptide)
peptide: STPNGL
modifications: not checked
B20 had an IC50 in assay [1] of 550 µM.

B21: Sample No. 5826, fragment ligated inhibitor (4-propylbenzoic acid) (peptide)
peptide: STPNGL
modifications: not checked
Consider B21, for which the IC50 in assay [1] came to 10.8 µM.

B22: Ac-PLHSEA (sample no. 5744) (peptide)
peptide: PLHSEA
modifications: not checked
B22: in assay [1], the IC50 worked out at 500 µM.

B23: Ac-PLHS[pT]A (sample no. 5743) (peptide)
peptide: PLHSTA
modifications: not checked
In assay [2], B23 gave an Aberrant mitoses @ 24 hr, 30 mM of 40.3%; an Apoptosis @24 hr of 34%; a cells with mitotic abnormalities (10 µM) of 32%; a relative fluorescence intensity of PLK1 staining at centrosomes (30 µM, HeLa-H2B-GFP) (arbitrary fluorescence units) of 33.

B24: 3G2-S[pT]PNGL (4-butylbenzoic acid) (Sample No. 5827) (peptide)
peptide: STPNGL
modifications: not checked
In assay [2], B24 displayed an Aberrant mitoses @ 24 hr of 53.8%; an Apoptosis @24 hr of 55.5%; a proportion of viable cells after 24 hours, 30 µM (Annexin V/PI) of 45%.

The values above are taken from patent US20160011195A1.
